“And” between values parts separate entries of the source, which are not always exact repeats. Equal values may be shown once.
Assays:
[1] = target: gephyrin E-domain (GephE); assay: ITC
full-length gephyrin rC4 [2] = assay: ITC
full-length gephyrin rC4 [3] = target: full-length gephyrin rC4
full-length gephyrin rC4 [4] = assay: cross-linking; EDC cross-linking of purified full-length gephyrin and βL-wt, 6% SDS-PAGE with Coomassie staining, trimer band extracted, tryptic digestion and LC-MS/MS peptide mass fingerprinting
[5] = target: gephyrin E-domain (GephE); assay: not stated; data not shown; physiologic salt concentrations and pH 7.4-8.0

| Substance | dH (full-length gephyrin rC4 [2]) | Deff of extrasynaptic trajectories above the threshold of 0.02 µm^2/s (sptPALM, rat spinal cord neurons), Q1/Q2/Q3; value: the median Q2 (full-length gephyrin rC4 [3]) | Deff of synaptic trajectories above the threshold of 0.02 µm^2/s (sptPALM, rat spinal cord neurons), Q1/Q2/Q3; value: the median Q2 (full-length gephyrin rC4 [3]) | explored area of extrasynaptic trajectories above the threshold of 0.02 µm^2/s (sptPALM, rat spinal cord neurons), Q1/Q2/Q3; value: the median Q2 (full-length gephyrin rC4 [3]) | explored area of synaptic trajectories above the threshold of 0.02 µm^2/s (sptPALM, rat spinal cord neurons), Q1/Q2/Q3; value: the median Q2 (full-length gephyrin rC4 [3]) | other results |
| --- | --- | --- | --- | --- | --- | --- |
| GlyR β-loop wild type, residues 378-426 of the GlyRβ subunit (from UniProt P20781 400-448) (peptide) |  |  |  |  |  | dH [1]: -16.1 kcal/mol |
| GlyR β-loop βL-HI, residues 394-426 (from UniProt P20781 416-448) (peptide) | -21.5 kcal/mol |  |  |  |  |  |
| GlyR β-loop βL-LO, residues 378-413 (from UniProt P20781 400-435) (peptide) | -11.8 kcal/mol |  |  |  |  |  |
| GlyRβ-D407P/F408G: mEos4b-tagged full-length human GlyRβ with D407P and F408G (from UniProt P48167-1 23-497) (receptor) |  | 0.09 µm^2 · s^−1 | 0.04 µm^2 · s^−1 | 0.00152 µm^2 | 0.00086 µm^2 |  |
| GlyRβ-HI: mEos4b-tagged full-length human GlyRβ with deletion ΔV378-L393 (from UniProt P48167-1 23-497) (receptor) |  | 0.05 µm^2 · s^−1 | 0.04 µm^2 · s^−1 | 0.00096 µm^2 | 0.00077 µm^2 |  |
| GlyRβ-geph^-: mEos4b-tagged full-length human GlyRβ with F398A/I400A (from UniProt P48167-1 23-497) (receptor) |  | 0.11 µm^2 · s^−1 | 0.09 µm^2 · s^−1 | 0.00183 µm^2 | 0.00151 µm^2 |  |
| core βL peptide, residues 394-413 (from UniProt P20781 416-435) | -11 kcal/mol |  |  |  |  |  |
| full-length gephyrin rC4 (natural protein) |  |  |  |  |  | stoichiometry N (full-length gephyrin rC4 [4]): 2 and 3 |
| gephyrin E-domain (GephE) (domain or fragment) |  |  |  |  |  | stoichiometry N [5]: 2 |
| mEos4b-tagged full-length human GlyRβ subunit, wild type (from UniProt P48167-1 23-497) (receptor) |  | 0.05 µm^2 · s^−1 | 0.04 µm^2 · s^−1 | 0.00091 µm^2 | 0.00073 µm^2 |  |

Source: PMC5818551
